Experiment: yeast display, Sf9 membrane polyspecificity reagent, FACS + sequencing; frameworks hold sequencing errors
Procedure, shortened: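 Genes from sorted yeast were amplified by colony PCR, read by MiSeq 2 × 250 sequencing and filtered on CDR length. These cells carried a synthetic nanobody library in Saccharomyces cerevisiae BJ5465 and were sorted by FACS into low and high (top ~1%) gates on anti-HA and streptavidin fluorescence. Polyreactivity is labelled according to the gate of origin.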

| Sequence | polyreactivity (PSR sort gate) |
| --- | --- |
| QVQLEESAGGLVQAGGSLRLSCAASGLTFNYYAMGWYRQAPGKERELVAAITGRGGSTYYADSVKGRFTISRDNAKNTVYLQMNSLKPEDTAVYYCAADGGTRGYDYWGQGTQVTVSS | low polyreactivity |
| QVQLVESGAGLVQAGGRIRLSCAASGRTLYGNTMGWYRPAPWKERELVAAINWSGGRTRYADSVKGRFTNSRDNAKNTVYVEMNSVKPEDTAVYYCAATKRANHERFGSWGQGTQVTVSS | high polyreactivity |
| QVQLVESGGGLVQAGGSLRLSCAASGSIFRGYAMGSYRQAPGKERELVATIDSSAGSTYYADSVKGRCTISRDNAKNTVYLQMNSLKPEDTAVYYCATDPYGYYYSGFDYWGQGTQVTVSS | low polyreactivity |
| QVQLVESGGGLVQAGGSLRLSCAASGIIFYRYAMGWYRQAPGKERELVAAISSSGTNTYYADSVKGRFTISRDNAKNTVYLQMNSLKPEDTAVYYCNSDTWADRSTYDYWGQGTQVTVSS | low polyreactivity |
| QVQLVESGGGLVQAGGSLRLSCAASGSIFDSYAMGWYRQAPGKERELVATINTSGGSTYYADSVKGRFTIHDNAKNTVYLQKNSLKPEDTAVYYCNAGRWVYWQNNFGDYGYWGQGTQVTVSS | low polyreactivity |
| QVQLQVSGGDLVQAGGSLRLSCAASGTIYGLTAMGWYRLAPGKEREFVAAITDGGNTNYADSVKGRFTISRDNAINTVYLQMISLKPEDTAVYYCAVLFSDDAYYAYWGQGTQVTVSS | low polyreactivity |
| QVQLVESGGGLVQAGGSLRLSCAASGSILQSYAMGWYRQAPGKERELVAAITYRGGRTYYADSVKGRFTISRDNAKNTVYLQMNSLKPEDTAVYYCAADQQRSIDAPYGYWGQGTQVTVSS | low polyreactivity |
| QVQLVESGGGLVQAGGSLRLSCAASGSTFTVNAMGWYRQAPGKERELVAAISWRGGTTYYADSVKGRFTISRDNAKNTVYLQMNSLKPEDTAVYYCAATSYRRSGRYYYWGQGTQVTVSS | high polyreactivity |
| QVQLVESGGGLVQAGGSLRLSCAASGRIFYSYAMGWYRQAPGKERELVAAISSAGSTYYADSVKGRFTISRDNAKNTVYLQMNSLKPEDTAVYYCAAGVTYYRYVSYVGPVPLGFDYWGQGTQVTVSS | high polyreactivity |
| QVQLVESGGGLVQAGGSLRLSCAASGSTIRLNAMGWYRQAPGKERELVAAISWTGGSTYYADSVKGRFTISRDNAKNTVYLQMNSLKPEDTAVYYCAADWWQGTSHYWGGAYNYWGQGTQVTVSS | low polyreactivity |
| QVQLVESGGGLVQAGGSLRLSCAASGSIFKYNAMGWYRQAPGKERELVAAIRWSGVGTRYADSVKGRFTISRDNAKNTVYLQMNSLKPEDTAVYYCAADVTKYHDGHEYDYWGQGTQVTVSS | low polyreactivity |
| QVQLVESGGGLVQAGGSLRLSCAASGSIFVINAMGWYRQAPGKERELVAAIDWSGDSTYYADSVKVRFTISRDNAKNTVYLEMNSLKPEDTAVYYCAADLDSRGTYGRYEYWGQGTQVTVSS | low polyreactivity |
| QEQMQEGGGGLVQAGGSLRLICASSGYNFNGDWMGWNRQAPGKERELVATINYGATTNYADSVKGRFTISRDNAKNTVYLQMNSLKPEDTAVYYCAVGGHGAQLYVYWGQGTQVTVSN | high polyreactivity |
| QVQLVESGGGLLQAGGRLRLSCAASGFTSTRYAMGWYRQAPGKERELVAAISYGGGDTYYADSVKGRFTISRDNAKNTVYIQMNSMKPEDTAVYYCSSRLRSRNTRLYHWGQGTQGTVSS | high polyreactivity |
| QVQLVDSGGGLVQAGGSLRLSCDASGSIFYPYALGCYIQAPGKERELVAAITTSGGSTYYADSVKGRFTISRDNAKNTVYLQMNSLKPEATAVYYCSASYYSDIWPYSVYDLEFYWGQGTQVTVSS | high polyreactivity |
| QVQLVESGGGLVQAGGSLRLSCAASGGIFWFNAMGRYRQAPGKEREFVAAITWRGGSTYYADSVKGRFTISRDNAKNTVYLQMHSLKPEDTAVYYCAATYWWHRSSGWDRVEYWGQGTQVNVSS | high polyreactivity |

| Sequence | polyreactivity (PSR sort gate) |
| --- | --- |
| QVQLVESGGGLVQAGGSLRLSCAASGLIFRANSMGWYRQPPGKVRELVAAISSGGSTYYADSVKGRFTISRDNAKNTVYLQMNSLIPEDTAFYYCAALGQSPSRFGYWGQGTQVTVSS | low polyreactivity |
| QVQLVESGGGLVQAGGSLRLSCAASGRTFINYAKGWYRQAPGKERELVAAITTGGGGTYYADSVKGRFTISRDNAKNTVYLQMNSLKPEDTAVYYCAAEGTGYWGIVGYYYWGQGTQVTVSS | low polyreactivity |
| QVQLVESGGGLVQAGGSLRLSCAASGIIIRRYAMGWSRQAPGKERELVAAISWSGGSTYYADSVKGRFTISRDNAKNTVDLQMNSLKPEDTAVYYCAAAAYTRDEYDYWGQGTQVTVSS | high polyreactivity |
| QVQLVESGGGLVQAGGSLRLSCAASGSIFYSNAMGWYRQAPGKERELVAAISGSGGTTYYADSVKGRFTISRDNAKNTVYIQMNSLKPEDTAVYYCAAKPRVRVRLSDYWGQGTQVTVSS | high polyreactivity |
| QVQLVESGGGLVQAGGSLRLSCAASGIIFAQYTMGWYRQAPGKERELVAAINRNGGSTYYADSVKGRFTISRDNAKNTVYLQMNSLKPEDTAVYYCNADALGFRYDYWGQGTQVTLSS | low polyreactivity |
| QVQLVESGGGLVQAGGSLRLSCAASGSIFFDGNAMGWYRQAPGKERELVAAISVSGGSTYYADSVKGRFTISRDNAKNTVYLQMNSLKPEDTAVYYCAKYPSKSFVPGDYWGQGTQVTVSS | low polyreactivity |
| QVQLVESGGGLVQAGGSLRLSCAASGLMFTRYAMGWYRQAPGKERELVAAISITGGSTYYADSVKGRFTFSRDNAKNTVYLQMNSLKPEDTAVYYCAAQRQVTTGIYGYWGQGTQVTVSS | high polyreactivity |
| QVQLVESGGGLVQAGGSLRLSCSASGSIFVWYDMGWYRQAPGKERELVATISLSGVSTYYADSVKGRFTISRDNAKNTVYLQMNSLKPEDTAVYYCNKDDPVDGPLYFRKYDYWGQGTQVTVSS | low polyreactivity |
| QVQLVESGGGLVQAGGSLRLSCAASGLIFSGYAMGWYRQAPGKDRELVAAITWSGGRTYADSVKGRFTISRDNAKNTVYLQMNSLKPEDTAVYYCNADAYIDYWPYTWDYDYWGQGTQVTVSS | high polyreactivity |
| QDQLVESGGGLVQAGGSLRLSCAASGFIFFYYAMGRYRQAPGKERELVAAISSSGGSTYYADSVKGRFTISRDNAKNTVYLQMNSLKPEDTAVYYCAAQYNVPRDKYYYWGQGTQVTVSS | high polyreactivity |
| QVQLQESAAGLVQAGGSLRMSCAASGNIFDADIMGWYRQEPGKERELVASITDGRRTNYADSVKGRYTISRDSEKNTVYLQMNSLKPEDTAVYYCAAIAYPVVPTYFDYDSDYFHWGQGTQVTVSS | high polyreactivity |
| QVQLVESGGGLVQAGGSLRLSCAASGLIFAGYSMGWYRLAPGKERELVAAITWRGGRTYADSVKGRFTISRDNAKNTVYLQMNSLKPEDTAVYYCAVRRWGTSFVEDDYWGQGTQVTVSS | low polyreactivity |
| QVQLVESGGGLVQAGGSLRLSCAASGRIYLRYTMGWYRQAPGKERELVAAISARTTGTYYADSVKGRFTISRDNAKNTVYLQMKSLKPEDTAVYYCASKSKLSRDLYSWGQGTQVTVSS | low polyreactivity |
| QVQLVESGGGLVQAGGSLRLSCAASGRIFVYYAMGWYRQAPGKERELVAAITSGGGSTYYADSVKGRFTISRDNAKNTVYLQMNSLKPEDTAVYYCNKGYYYPYDYWGQGTQVTVSS | high polyreactivity |
| QVHLVESGGGKVQAGGRLRLSCAASGSTFFRYAMGWYRQAPGKERELVAAISWSGGTTYYADSVKGRFPISRDIAKNTVYLQMNSLKPEDTAVYYCNAVRQGHILDYWGQGTQVTVSS | low polyreactivity |

Source: the nanobody polyreactivity screen of Harvey et al. (2022)
